Measured values: doi:10.1101/2024.09.02.610899

Target: POTRA domains of Toc75 (Toc75-POTRA) (Chlamydomonas reinhardtii)
Test: SPR

Tic22 (recombinant, His-tagged) (natural protein)
Kd: 5.22 µM
